From patent US5084274A, “Inhibition of arterial thrombotic occlusion or thromboembolism” (Scripps Clinic and Research Foundation, priority 1987, dated 1992)

Legend:
[1] = tested on: platelet deposition in the Dacron graft; assay: Platelet deposition (thrombus formation) in Dacron graft, arterial thrombosis model, 111In-labeled platelets; type: in vivo, baboon; settings: 1 mg of t-PA (0.1 mg/kg/hour) infusion; previous studies, same model
Protocol: Permanent arteriovenous shunts were prepared between the femoral artery and vein using 3 mm i.d. Silastic tubing Subsequent interposition of 5 cm long, 4 mm i.d. Dacron vascular grafts served as thrombogenic surface, inducing continuous platelet-fibrinthrombus formation until progressive occlusion of the graft at 70±20 min.
All baboons underwent at least one control experiment prior to APC administration. The APC was given by injecting one-fourth to one-third of the total PC dose as a bolus and the remaining three-fourths to two-thirds of the dose as continuous infusion for one hour. The interposition of the graft and bolus injection were made at time=0 and APC was administered at the proximal site of the Silastic shunt. The experiments were divided into three groups; the "low dose" APC group received 2.0-3.4 mg (total), the "high dose" APC group received 11 mg (total), and the combination group received 2.1 mg APC plus 1.3 mg t-PA (total).
Platelet Deposition in the Dacron Graft
The deposition of ^III In-labeled Platelets was detected by scintillation camera images of the graft. […] Inhibition of platelet deposition in treated animals was expressed as % of total number of platelets deposited in the control experiments at 30 and 60 minutes timepoints.

[2] = tested on: acute myocardial infarction / occluded coronary arteries; settings: cited from earlier work

B1: t-PA: t-PA from a melanoma cell line, provided by Dr. Desire Collen (Leuven, Belgium) (protein, UniProt P00750 36-562, looked up)
Tissue-type plasminogen …: SYQVICRDEKTQMIYQQHQSWLRPVLRSNRVEYCWCNSGRAQCHSVPVKSCSEPRCFNGGTCQQALYFSDFVCQCPEGFAGKCCEIDTRATCYEDQGISYRGTWSTAESGAECTNWNSSALAQKPYSGRRPDAIRLGLGNHNYCRNPDRDSKPWCYVFKAGKYSSEFCSTPACSEGNSDCYFGNGSAYRGTHSLTESGASCLPWNSMILIGKVYTAQNPSAQALGLGKHNYCRNPDGDAKPWCHVLKNRRLTWEYCDVPSCSTCGLRQYSQPQFRIKGGLFADIASHPWQAAIFAKHRRSPGERFLCGGILISSCWILSAAHCFQERFPPHHLTVILGRTYRVVPGEEEQKFEVEKYIVHKEFDDDTYDNDIALLQLKSDSSRCAQESSVVRTVCLPPADLQLPDWTECELSGYGKHEALSPFYSERLKEAHVRLYPSSRCTSQHLLNRTVTDNMLCAGDTRSGGPQANLHDACQGDSGGPLVCLNDGRMTLVGIISWGLGCGQKDVPGVYTKVTNYLDWIRDNMRP
Antiplatelet effect (in words, FIG. 8) [1]: intermediate antiplatelet effect
Patients with reocclusion after discontinuing t-PA infusion ([2]; after successful thrombolytic reperfusion, despite full-dose heparin therapy): between one-four and one-third of patients
Thrombolysis in acute myocardial infarction (in words) ([2]; infusion into humans): effective thrombolysis
